pKd: −log10 of the molar value.
How the values were obtained:
[1] = target: taxol-stabilized microtubules (pelleting assays) (UniProt P02550); experiment: co-sedimentation; as a5 with increasing microtubules, in the presence of an added Ndc80 complex (1 µM Ndc80 Bonsai; Ndc80 Broccoli); apparent
[2] = target: taxol-stabilized microtubules (pelleting assays) (UniProt P02550); experiment: co-sedimentation; microtubule pelleting with increasing taxol-stabilized microtubules; ~5 nM Astrin-SKAP complex, BRB80 with 25 mM KCl, 0.5 mg/mL BSA, room temperature 10 min, glycerol cushion; α-SKAP Western blot; apparent

apparent KD in the presence of 1 µM Ndc80 Bonsai complex [1] [µM]	pKd [2]	Substance
1.4	5.49	Astrin 1–693 complex (Astrin 1–693, SKAP, LC8, MYCBP) (from UniProt Q96R06 1-693; P63167 1-89; Q99417 1-103)
1.7	5.66	Astrin 465–693 complex (Astrin 465–693, SKAP, LC8, MYCBP) (from UniProt Q96R06 465-693; P63167 1-89; Q99417 1-103)
